# In patent US20100150950A1, “HUMAN ANTIBODIES THAT BIND CD70 AND USES THEREOF” (Medarex, Inc., priority 2006, published 2010):
# Numbering of substitutions follows the chain as printed.
# B1: anti-CD70 human monoclonal antibody 69A7 (antibody, V domains shown)
# VH: QVQLQESGPGLVKPSETLSLTCTVSGGSVSSDYYYWSWIRQPPGKGLEWLGYIYYSGSTNYNPSLKSRVTISVDTSKNQFSLKLRSVTTADTAVYYCARGDGDYGGNCFDYWGQGTLVTVSS
# VL: EIVLTQSPATLSLSPGERATLSCRASQSVSSYLAWYQQKPGQAPRLLIFDASNRATGIPARFSGSGSGTDFTLTISSLEPEDFAVYYCQQRSNWPLTFGGGTKVEIK
# notes: Human IgG from hybridoma; also called HuMAb 69A7; FITC-conjugated 69A7
# B2: 2H5 NF: 2H5 HuMAb lacking fucosyl residues, expressed in CHO cell line Ms704-PF (antibody, V domains shown)
# VH: QVQLVESGGGVVQPGRSLRLSCAASGFTFSSYIMHWVRQAPGKGLEWVAVISYDGRNKYYADSVKGRFTISRDNSKNTLYLQMNSLRAEDTAVYYCARDTDGYDFDYWGQGTLVTVSS
# VL: B1 VL with F49Y, S92T
# Key:
# [1] = tested on: 786-O human renal cancer cell line; experiment: Internalization by immunofluorescence staining; type: cell-based
# Procedure: The 786-O human renal cancer cell line was used to test the internalization of HuMab anti-CD70 antibodies 69A7 and 2H5 upon binding to the cells using immuno-fluorescence staining. 786-O cells (1×10^4 cells per 100 μl per well in a 96-well plate) were harvested from a tissue culture flask by treatment with 0.25% Trypsin/EDTA, then incubated with each of the HuMab anti-CD70 antibodies at 5 μg/ml in FACS buffer (PBS+5% FBS, media) for 30 minutes on ice. A human IgG1 isotype control was used as a negative control. Following 2 washes with media, the cells were re-suspended in the media (100 μl per well) and then incubated with goat anti-human secondary antibody conjugated with PE (Jackson ImmunoResearch Lab) at 1:100 dilution on ice for 30 minutes. The cells were either immediately imaged for morphology and immunofluorescence intensity under a fluorescent microscope (Nikon) at 0 min or incubated at 37° C. for various times. […] Similar results were also obtained with FITC-direct conjugated HuMab anti-CD70 antibodies in the assays. […] At the 120 min timepoint, membrane fluorescence was not apparent, but instead appeared to be present in intracellular compartments.
# [2] = tested on: ARH-77 cells; experiment: ADCC fluorescence cytotoxicity assay, ARH-77; type: cell-based, human; settings: target to effector ratio 1:50
# Procedure: In this example, anti-CD70 monoclonal antibodies were tested for the ability to kill CD70+ cell lines in the presence of effector cells via antibody dependent cellular cytotoxicity (ADCC) in a fluorescence cytotoxicity assay.
# Human effector cells were prepared from whole blood as follows. Human peripheral blood mononuclear cells were purified from heparinized whole blood by standard Ficoll-paque separation. The cells were resuspended in RPMI1640 media containing 10% FBS and 200 U/ml of human IL-2 and incubated overnight at 37° C. The following day, the cells were collected and washed four times in culture media and resuspended at 2×10^7 cells/ml. […]
# The CD70+ cell lines ARH-77 (human B lymphoblast leukemia; ATCC Accession No. CRL-1621), HuT 78 (human cutaneous lymphocyte lymphoma; ATCC Accession No. TIB-161), Raji (human B lymphocyte Burkitt's lymphoma; ATCC Accession No. CCL-86) and a negative control cell line L540 (human Hodgkin's lymphoma; DSMZ Deposit No. ACC 72) were tested for antibody specific ADCC to the human anti-CD70 monoclonal antibodies using the Delfia fluorescence emission analysis as follows. […]
# In this example, a defucosylated and non-defucosylated anti-CD70 monoclonal antibody was tested for the ability to kill CD70+cells in the presence of effector cells via antibody dependent cellular cytotoxicity (ADCC) in a fluorescence cytotoxicity assay […]
# [3] = tested on: activated human B cells; experiment: Binding to and ADCC of activated human B cells (51Cr); type: cell-based
# Procedure: In this study, a HuMAb anti-CD70 antibody and the nonfucosylated form were tested for their ability to mediate ADCC effects on human B cells. Frozen human spleen cells were thawed and B cells were negatively purified by magnetic beads. Purified B cells were cultured at 2×10^6/ml in RPMI+10% FBS supplemented with NEAA, sodium pyruvate, β-ME and penicillin/streptomycin. B cells were activated by 10 μg/ml of LPS and 5 μg/ml anti-CD40 for 3 days. The cells were harvested, washed and an aliquot was stained with biotin conjugated nonfucosylated 2H5 (2H5 NF-bio)+streptavidin-APC. Human peripheral blood mononuclear effector cells were purified from heparinized whole blood by standard Ficoll-Paque separation and cultured overnight in of 50 U/ml IL-2. The activated B cells were labeled with 100 μCi of Na2 ^51CrO4 (Perkin Elmer, Wellesley, Mass.) per 1×10^6 cells for 1 hour. Effector cells were added to labeled target cells at a ratio of […] in the presence of serial dilutions of 2H5 and 2H5 NF (non-fucosylated). In addition, the test articles were assayed at 10 μg/ml in the presence of 20 μg/ml murine anti-CD 16 antibody 3G8 or mouse isotype control antibody. Following […] for 4 hours at 37° C., cells were centrifuged and the supernate was read on the Cobra II auto-gamma counter (Perkin Elmer) with a reading window of 240-400 KeV. The percent specific lysis was calculated as: (experimental release−spontaneous release)/(maximal release−spontaneous release)×100 where: (i) target cells with no effector cells and no antibody control for spontaneous release and (ii) target and effector cells in presence of 3% Lysol detergent control for maximal release. Percent specific lysis was plotted against antibody concentration and the data was analyzed by non-linear regression, sigmoidal dose response (variable slope) using GraphPad Prism™ 3.0 software (San Diego, Calif.).
Molecule,membrane fluorescence intensity ([1]; 30 min incubation at 37° C.),membrane fluorescence ([1]; 120 min timepoint),"internalization upon binding ([1]; antibody 5 μg/ml, 37° C.)","ADCC, % lysis of ARH-77 [2]",potency relative to 2H5 ([3]; ADCC of activated human B cells),"activated B cells bound ([3]; biotin conjugated 2H5 NF + streptavidin-APC, FACS)","lysis of activated human B cells (ADCC) ([3]; effector to target 1:100 as printed, 4 hours)"
B1,significantly decreased,not apparent,specifically internalized,,,,
B2,,,,increased percentage of specific lysis,approximately 10 fold,~60%,induced lysis
